This test concerns the target ASGPR of the murine amino acid sequence (murine). Kind of test: cell-based or functional assay.

These results are taken from patent EP4442322A1.

ASGPR of the murine amino acid sequence (murine), sequence (P34927 whole entry, chain 1 of 2): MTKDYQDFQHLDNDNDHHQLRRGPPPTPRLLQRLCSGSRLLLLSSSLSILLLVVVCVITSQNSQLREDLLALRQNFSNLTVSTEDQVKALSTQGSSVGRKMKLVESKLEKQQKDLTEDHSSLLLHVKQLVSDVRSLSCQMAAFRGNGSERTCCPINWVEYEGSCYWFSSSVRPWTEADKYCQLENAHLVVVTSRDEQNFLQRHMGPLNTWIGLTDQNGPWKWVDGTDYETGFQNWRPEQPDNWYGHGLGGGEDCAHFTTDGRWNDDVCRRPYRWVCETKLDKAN
ASGPR of the murine amino acid sequence (murine), sequence (P24721 whole entry, chain 2 of 2, further chain): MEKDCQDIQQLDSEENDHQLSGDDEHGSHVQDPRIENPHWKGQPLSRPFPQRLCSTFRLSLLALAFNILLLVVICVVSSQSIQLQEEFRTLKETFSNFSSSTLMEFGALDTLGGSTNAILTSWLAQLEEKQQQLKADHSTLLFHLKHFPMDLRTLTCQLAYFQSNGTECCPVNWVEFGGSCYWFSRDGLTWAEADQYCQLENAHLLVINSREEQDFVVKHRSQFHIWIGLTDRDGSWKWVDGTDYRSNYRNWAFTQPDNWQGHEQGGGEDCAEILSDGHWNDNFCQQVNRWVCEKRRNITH

B1: CAR having the scFv of SEQ ID NO: 24 (C11), murine Ig-construct (mIg) (protein)
chain: QIQLVQSGGGLVQPGGSLRLSCAGSGYTFSDHYMDWVRQAPGKGLEWVGRIRYKANSYSTEYAASVKGRFTISRDDSRNSLFLQMNSLKTEDTAVYYCARIRDRYYFDYWGQGALVTVSSGSASAPKLEEGEFSEARVQSVLTQPPSVSGAPGQRVTISCTGSSSNVGAGYDVHWYQQLPGAAPKLLIYGNSNRPSGVPDRFSGSKSGTSASLAISGLQSEDEADYYCAAWDDSLNGVVFGGGTKLTVLGQPKAAPSVTLFPPSSAAAGSEQKLISEEDLSHHHHHHVPRDGGCKPCICTVPEVSSVFIFPPKPKDVLTITLTPKVTCVVVDISKDDPEVQFSWFVDDVEVHTAQTQPREEQFNSTFRSVSELPIMHQDWLNGKEFKCRVNSAAFPAPIEKTISKTKGRPKAPQVCTIPPPKEQMAKDKVSLTCMITDFFPEDITVEWQWNGQPAENYKNTQPIMDTDGSYFVYSKLNVQKSNWEAGNTFTCSVLHEGLHNHHTEKSLSHSPGVFLACVLGGSFGFLGFLGLCILCCVNSRRNRLLQSDYMNMTPRRPGLTRKPYQPYAPARDFAAYRPLRAKFSRSAETAANLQDPNQLYNELNLGRREEYDVLEKKRARDPEMGGKQQRRRNPQEGVYNALQKDKMAEAYSEIGTKGERRRGKGHDGLYQGLSTATKDTYDALHMQTLAPR
For the molecule B1, the activated cells (GFP), Q2 (Fig. 6E) was 3.41%; the activated cells (GFP), Q2 and Q3 in total (Fig. 6E) came out at 13.3%; the activated cells (GFP), Q3 (Fig. 6E) amounted to 9.86%.

B2: CAR having the scFv of SEQ ID NO: 26 (C3), murine Ig-construct (mIg) (protein)
chain: VHSQVTLKESGGGLVQPGGSLRLSCAASGFTFSSYAMSWVRQAPGKGLEWVSAISGSGGSTYYADSVKGRFTISRDNSKNTLYLQMNSLRAEDTAVYYCAKDLKQWLEDYWGQGTLVTVSSGSASAPKLEEGEFSEARVDVVMTQSPSTLSASVGDRVTITCRASQSIGPWLAWYQQKPGEAPKLLLYKASILEGGVPSRFSGRGSGTEFTLTISSLQPDDFATYYCQQYNTFGPTFGQGTKLEIKRTVAAPSVFDPVPRDGGCKPCICTVPRDGGCKPCICTVPEVSSVFIFPPKPKDVLTITLTPKVTCVVVDISKDDPEVQFSWFVDDVEVHTAQTQPREEQFNSTFRSVSELPIMHQDWLNGKEFKCRVNSAAFPAPIEKTISKTKGRPKAPQVCTIPPPKEQMAKDKVSLTCMITDFFPEDITVEWQWNGQPAENYKNTQPIMDTDGSYFVYSKLNVQKSNWEAGNTFTCSVLHEGLHNHHTEKSLSHSPGVFLACVLGGSFGFLGFLGLCILCCVNSRRNRLLQSDYMNMTPRRPGLTRKPYQPYAPARDFAAYRPLRAKFSRSAETAANLQDPNQLYNELNLGRREEYDVLEKKRARDPEMGGKQQRRRNPQEGVYNALQKDKMAEAYSEIGTKGERRRGKGHDGLYQGLSTATKDTYDALHMQTLAPR
B2 showed an activated cells (GFP), Q2 (Fig. 9E) of 3.7%; an activated cells (GFP), Q2 and Q3 in total (Fig. 9E) of 6.06%; an activated cells (GFP), Q3 (Fig. 9E) of 2.36%.

B3: CAR having the scFv of SEQ ID NO: 24 (C11), murine CD8 construct (mCD8) (protein)
chain: QIQLVQSGGGLVQPGGSLRLSCAGSGYTFSDHYMDWVRQAPGKGLEWVGRIRYKANSYSTEYAASVKGRFTISRDDSRNSLFLQMNSLKTEDTAVYYCARIRDRYYFDYWGQGALVTVSSGSASAPKLEEGEFSEARVQSVLTQPPSVSGAPGQRVTISCTGSSSNVGAGYDVHWYQQLPGAAPKLLIYGNSNRPSGVPDRFSGSKSGTSASLAISGLQSEDEADYYCAAWDDSLNGVVFGGGTKLTVLGQPKAAPSVTLFPPSSAAAGSEQKLISEEDLSHHHHHHSSVVPVLQKVNSTTTKPVLRTPSPVHPTGTSQPQRPEDCRPRGSVKGTGLDFACDIYIWAPLAGICVALLLSLIITLICYHRWTNSRRNRLLQSDYMNMTPRRPGLTRKPYQPYAPARDFAAYRPRAKFSRSAETAANLQDPNQLYNELNLGRREEYDVLEKKRARDPEMGGKQQRRRNPQEGVYNALQKDKMAEAYSEIGTKGERRRGKGHDGLYQGLSTATKDTYDALHMQTLAPR
Molecule B3 registered an activated cells (GFP), Q2 (Fig. 6F) of 4.04%; an activated cells (GFP), Q2 and Q3 in total (Fig. 6F) of 9.44%; an activated cells (GFP), Q3 (Fig. 6F) of 5.4%.
